We go through two molecules from patent US20250382371A1 (NATIONAL INSTITUTES OF BIOMEDICAL INNOVATION HEALTH AND …, published 2025).

In test [1] the target is T1, hFCRL1/FcRH1-His (manufactured by R&D Systems) (human, UniProt Q96LA6 17-307).
T1 construct: Bought His-tagged recombinant human FCRL1; The protein in the assay is soluble and is probably only the extracellular part; not shown: His tag
T1 sequence: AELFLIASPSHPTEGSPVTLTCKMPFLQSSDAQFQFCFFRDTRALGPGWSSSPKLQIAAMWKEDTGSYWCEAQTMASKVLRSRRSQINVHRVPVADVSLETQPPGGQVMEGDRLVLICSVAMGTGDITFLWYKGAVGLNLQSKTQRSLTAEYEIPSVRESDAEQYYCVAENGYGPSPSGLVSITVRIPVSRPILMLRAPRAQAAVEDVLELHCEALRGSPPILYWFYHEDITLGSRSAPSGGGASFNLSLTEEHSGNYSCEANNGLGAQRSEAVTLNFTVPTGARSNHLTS
Kind of test: SPR (Biacore 8K+), antibody captured by anti-human IgG, hFCRL1/FcRH1-His as analyte; Steady state affinity model; kinetic rate constant of the same sensorgram. The procedure:
(§1) For the purpose of comparing the binding activity of the DK681 chimeric antibody (chDK681) and the DK1142 chimeric antibody (chDK1142) obtained by connecting […] of the DK681 and DK1142 mouse antibodies obtained in Example 4 to a human IgG1 (S239C) constant region with the binding activity of the anti-FCRL1 humanized antibody obtained in Example 10 to human FCRL1, the binding activity to hFCRL1/FcRH1-His (manufactured by R&D Systems) was measured by a surface plasmon resonance method (SPR method) using Biacore8K+ (manufactured by Cytiva).
(§2) The binding activity of the anti-FCRL1 antibody was measured as follows. An anti-human IgG antibody was immobilized on a CM5 sensor chip (manufactured by Cytiva) in accordance with the attached protocol using a Human Antibody Capture Kit (manufactured by Cytiva). […]
(§3) Next, hFCRL1/FcRH1-His, which is prepared stepwise to 5 concentrations by 3-fold dilution from 10000 ng/ml, was monitored at a flow rate of 30 μL/min for a binding reaction for 180 seconds and a dissociation reaction for 400 seconds. For the obtained sensorgram, a kinetic constant of each antibody was calculated by fitting by a Steady state affinity model or a 1:1 Binding model using Bia Evaluation Software (manufactured by Cytiva). The calculated binding rate constant (ka), dissociation rate constant (kd) and dissociation constant [KD] of each antibody are shown in Table 5. […]
On the technique in general: SPR reads the build-up and loss of mass on a sensor chip optically.

In test [2] the target is T1, hFCRL1/FcRH1-His (manufactured by R&D …). The experiment in a line: SPR (Biacore 8K+), antibody captured by anti-human IgG, hFCRL1/FcRH1-His as analyte; Steady state affinity model; KD from Steady state affinity model, not from kd/ka. The procedure:
as §1, §2, §3

The target of test [3] is T2, human FCRL1 (NCBI accession number: NP_443170.1), transiently expressed on 293T cells (human, UniProt Q96LA6 17-429).
T2 construct: also called Fc receptor-like protein 1; CD307a
T2 sequence: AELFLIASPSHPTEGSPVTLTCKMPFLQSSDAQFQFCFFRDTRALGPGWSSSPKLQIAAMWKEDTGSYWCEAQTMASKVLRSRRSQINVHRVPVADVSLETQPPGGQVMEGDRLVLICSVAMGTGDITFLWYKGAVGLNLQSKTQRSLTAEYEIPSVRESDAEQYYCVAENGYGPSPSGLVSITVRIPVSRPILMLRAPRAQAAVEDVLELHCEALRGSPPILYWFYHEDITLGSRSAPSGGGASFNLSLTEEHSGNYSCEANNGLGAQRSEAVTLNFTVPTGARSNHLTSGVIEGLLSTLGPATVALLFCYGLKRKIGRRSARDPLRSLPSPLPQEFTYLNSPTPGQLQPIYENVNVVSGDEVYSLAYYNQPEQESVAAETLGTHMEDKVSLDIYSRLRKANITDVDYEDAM
Kind of test: flow cytometry on 293T cells transiently expressing human FCRL1; apparent KD from EC50 of a 4-parameter fit. The protocol: (§4) An antigen-specific reactivity of the novel anti-human FCRL1 mouse antibody obtained in Example 4 was evaluated by Flow Cytometry (FCM). FCRL1 antigen-expressing cells were prepared by transiently expressing the recombinant FCRL1 antigen on 293T cells. A codon-optimized cDNA was synthesized based on the amino acid sequence of human FCRL1 (NCBI accession number: NP_443170.1) or cynomolgus monkey FCRL1 (XP_015310712), and a fragment in which the sequence of an internal ribosome entry site (IRES) derived from the encephalomyocarditis virus (EMCV) and the sequence of TagBFP were arranged in tandem was cloned into pcDNA 3.1hygro to construct an expression plasmid vector for human FCRL1 or cynomolgus monkey FCRL1. The purified expression vector was transfected into 293T cells, cells were collected 2 days after transfection, and binding with each antibody was confirmed by FCM.
As the secondary antibody, when the sample is a mouse antibody, R-Phycoerythrin (PE) F(ab′)₂ Fragment Goat Anti-Mouse IgG (H+L) (Jackson ImmunoResearch) was used, and when the sample is a human antibody or a human chimeric antibody, R-Phycoerythrin (PE) F(ab′)₂ Fragment Goat Anti-Human IgG, Fcγ Fragment Specific (Jackson ImmunoResearch) was used. A solution of each secondary antibody was prepared by diluting the stock solution 200 times with an FCM buffer. After washing once, cells in each well were suspended with 100 μL of FCM buffer, and binding to each antibody was confirmed by flow cytometry (FCM).
(§5) Cells that transiently expressed human FCRL1 or cynomolgus monkey FCRL1 were reacted with a 3-fold dilution series of each antibody starting from 100 nM (15 μg/ml) at 12 points. Data obtained by the FCM was analyzed, and a binding amount of each antibody bound to the cell was calculated as a fluorescence amount MFI derived from the PE-labeled secondary antibody. An antibody concentration and the measured MFI were plotted with respect to a logarithm of the antibody concentration, a saturated binding curve of each antibody was obtained, and regression was performed by a 4-parameter logistic model.
For orientation: In flow cytometry, cells or beads pass a laser one at a time.

For test [4], the target named is T3, cynomolgus monkey FCRL1 (XP_015310712), transiently expressed on 293T cells (cynomolgus monkey).
T3 chain: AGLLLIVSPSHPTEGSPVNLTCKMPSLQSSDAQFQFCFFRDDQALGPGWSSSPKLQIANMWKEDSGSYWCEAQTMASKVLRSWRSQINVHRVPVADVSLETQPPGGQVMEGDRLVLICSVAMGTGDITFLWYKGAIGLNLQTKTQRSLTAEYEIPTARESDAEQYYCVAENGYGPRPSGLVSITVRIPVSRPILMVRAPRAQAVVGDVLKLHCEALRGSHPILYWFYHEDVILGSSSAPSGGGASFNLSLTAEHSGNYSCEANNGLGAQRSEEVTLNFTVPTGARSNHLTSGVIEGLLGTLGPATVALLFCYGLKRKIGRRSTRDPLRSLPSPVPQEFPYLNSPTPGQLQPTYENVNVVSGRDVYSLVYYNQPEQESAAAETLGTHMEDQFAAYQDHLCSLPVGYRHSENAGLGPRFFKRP
The experiment in a line: flow cytometry on 293T cells transiently expressing cynomolgus monkey FCRL1. The protocol:
as §4, with “The purified expression vector was transfected into 293T cells, cells were collected 2 days after transfection, and binding with each antibody was confirmed by FCM.” left out
as §5

B1: DK681 chimeric antibody (chDK681), human IgG1 (S239C) (antibody)
heavy: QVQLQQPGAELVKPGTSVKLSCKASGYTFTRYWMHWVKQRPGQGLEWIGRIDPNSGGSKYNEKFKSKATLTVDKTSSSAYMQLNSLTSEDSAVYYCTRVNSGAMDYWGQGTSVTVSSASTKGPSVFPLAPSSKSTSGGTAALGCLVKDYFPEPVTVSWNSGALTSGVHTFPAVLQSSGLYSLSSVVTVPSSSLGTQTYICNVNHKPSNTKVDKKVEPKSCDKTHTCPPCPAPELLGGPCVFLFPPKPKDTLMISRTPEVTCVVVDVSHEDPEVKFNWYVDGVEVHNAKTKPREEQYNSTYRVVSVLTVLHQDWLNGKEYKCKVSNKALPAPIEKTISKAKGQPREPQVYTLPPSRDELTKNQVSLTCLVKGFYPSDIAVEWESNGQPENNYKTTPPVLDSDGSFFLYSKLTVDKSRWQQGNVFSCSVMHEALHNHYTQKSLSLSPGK
light: DIVMSQSPSSLAVSVGEKVTMSCKSSQSLLYSSNQKNYLAWYQQKPGQSPKLLIYWASTRESGVPDRFTGSGSGTDFTLTISSVKAEDLAIYYCQQYSNYPTFGSGTKLEIK
notes: also called DK681 F01; not shown: human kappa light chain constant region (pFUSE2-CLIg-hk vector)
Take B1: in test [1], the off-rate constant (koff) (in general, the rate constant with which the complex falls apart) is 0.00105 s⁻¹ and the association rate constant (kon) (as a rule, the rate constant with which the complex forms) is 447000 M⁻¹ s⁻¹. For the same molecule, in test [2], the Kd turned out to be 6.65 nM.

B2: anti-human FCRL1 mouse monoclonal antibody DK610 (antibody, V domains shown)
VH: DVLLQESGPGLVKPSQSLSLTCSVAGYSITSDYAWNWLRRFPGNRLEWMGYITYSGSTAYHPSLKGRISFTRDTSQNQVFLQLHSVTTEDSATYYCAQGGTLITTWFLRWGQGTLVTVSA
VL: DIVLTQSPASLAVSLGQRATISCRASKSVSTSDYNYMHWYRQKPGQPPKLFIYLASNLESGVPARFSGSGSGTDFTLNIHPVEEEDAATYYCQQSRELPSTFGGGTKLEIK
For B2, the Kd in test [3] came to 0.4 nM. Moreover, in test [4], the binding result was “no binding”.
